In IntAct's records for PubMed 9024666:

B1: Apoptosis regulator ced-9 (Caenorhabditis elegans), P41958 (parent)
chain: MTRCTADNSLTNPAYRRRTMATGEMKEFLGIKGTEPTDFGINSDAQDLPSPSRQASTRRMSIGESIDGKINDWEEPRLDIEGFVVDYFTHRIRQNGMEWFGAPGLPCGVQPEHEMMRVMGTIFEKKHAENFETFCEQLLAVPRISFSLYQDVVRTVGNAQTDQCPMSYGRLIGLISFGGFVAAKMMESVELQGQVRNLFVYTSLFIKTRIRNNWKEHNRSWDDFMTLGKQMKEDYERAEAEKVGRRKQNRRWSMIGAGVTAGAIGIVGVVVCGRMMFSLK
partner: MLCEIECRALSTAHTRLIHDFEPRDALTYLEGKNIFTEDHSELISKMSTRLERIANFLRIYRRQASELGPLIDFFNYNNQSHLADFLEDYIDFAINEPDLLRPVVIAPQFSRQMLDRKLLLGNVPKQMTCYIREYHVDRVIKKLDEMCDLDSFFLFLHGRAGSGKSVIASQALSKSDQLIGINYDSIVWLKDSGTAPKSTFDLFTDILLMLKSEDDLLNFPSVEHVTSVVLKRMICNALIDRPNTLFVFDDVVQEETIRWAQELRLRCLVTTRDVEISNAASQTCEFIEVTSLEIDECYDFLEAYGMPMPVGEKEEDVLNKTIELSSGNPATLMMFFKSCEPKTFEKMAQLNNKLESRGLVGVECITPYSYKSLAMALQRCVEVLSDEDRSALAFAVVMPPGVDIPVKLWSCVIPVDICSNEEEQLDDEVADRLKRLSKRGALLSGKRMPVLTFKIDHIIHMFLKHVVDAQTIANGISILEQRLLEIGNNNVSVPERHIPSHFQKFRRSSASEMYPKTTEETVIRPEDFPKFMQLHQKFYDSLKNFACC

Variants of: B1
Details: with ced4_caeel ced-4, P30429

effect of a mutation on the interaction | Variant
decreasing interaction | Y149N
